Experiment [1] concerns the target T1, human PSMA (prostate specific membrane antigen) on tumor cells (human, UniProt Q04609 1-750). As to the kind of experiment: cell-based or functional assay.
In experiment [2] the target is T1, human PSMA (prostate specific membrane …). As to the kind of experiment: flow cytometry on 22RV1 cells, FITC anti-human IgG secondary.
The target is the same in experiment [3]. Kind of experiment: flow cytometry on LNCaP cells, FITC anti-human IgG secondary. For orientation: A flow cytometer gives signals particle by particle.
For experiment [4] the target is unchanged. As to the kind of experiment: flow cytometry on 22RV1 cells, FITC anti-human IgG secondary. This is another data set of the same source.
The target is the same in experiment [5]. As to the kind of experiment: flow cytometry on LNCaP cells, FITC anti-human IgG secondary. This is another data set of the same source.
Experiment [6] addresses T2, mouse PSMA-His (ACRO, PSA-M5245) (mouse, UniProt O35409 45-752).
T2 construct: Commercial protein; not shown: His tag
As to the kind of experiment: SPR (Biacore T200), antibody captured on Protein A chip, antigen flowed over. A general note: SPR reads the build-up and loss of mass on a sensor chip optically.

The target in experiment [7] is T3, human PSMA-His (ACRO, PSA-H52H3) (human, UniProt Q04609 44-750).
T3 construct: Commercial protein; not shown: His tag
As to the kind of experiment: SPR (Biacore T200), antibody captured on Protein A chip, antigen flowed over, 1:1 model.

Experiment [8] addresses T4, monkey PSMA-His (ACRO, PSA-C5247) (monkey (cynomolgus), UniProt A0A2K5VNZ0 44-750).
T4 construct: Commercial protein; also called cynomolgus monkey PSMA; not shown: His tag
Described as above.

The target in experiment [9] is T1, human PSMA (prostate specific membrane …). As to the kind of experiment: cell-based or functional assay. This is another data set of the same source.

T1 sequence (Q04609 whole entry): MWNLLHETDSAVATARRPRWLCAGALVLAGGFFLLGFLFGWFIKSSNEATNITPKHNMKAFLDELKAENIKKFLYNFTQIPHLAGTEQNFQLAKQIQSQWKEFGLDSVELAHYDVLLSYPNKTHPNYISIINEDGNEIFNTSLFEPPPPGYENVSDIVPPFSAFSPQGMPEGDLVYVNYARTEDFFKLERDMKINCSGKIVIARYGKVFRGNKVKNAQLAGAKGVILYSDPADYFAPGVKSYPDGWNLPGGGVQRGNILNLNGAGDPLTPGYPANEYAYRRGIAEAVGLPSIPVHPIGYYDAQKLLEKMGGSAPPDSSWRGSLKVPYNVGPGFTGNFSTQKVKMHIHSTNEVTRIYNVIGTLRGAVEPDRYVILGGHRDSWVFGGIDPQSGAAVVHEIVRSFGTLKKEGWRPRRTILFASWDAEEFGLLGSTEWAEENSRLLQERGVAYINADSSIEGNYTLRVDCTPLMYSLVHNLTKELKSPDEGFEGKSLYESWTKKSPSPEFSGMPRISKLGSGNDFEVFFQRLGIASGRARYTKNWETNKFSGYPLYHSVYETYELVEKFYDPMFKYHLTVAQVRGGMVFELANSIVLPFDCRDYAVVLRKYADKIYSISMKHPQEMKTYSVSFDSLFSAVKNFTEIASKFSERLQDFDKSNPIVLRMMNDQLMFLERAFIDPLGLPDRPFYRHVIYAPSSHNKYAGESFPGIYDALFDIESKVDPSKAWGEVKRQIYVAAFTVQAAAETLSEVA
T3 sequence (Q04609 44-750 limits assumed): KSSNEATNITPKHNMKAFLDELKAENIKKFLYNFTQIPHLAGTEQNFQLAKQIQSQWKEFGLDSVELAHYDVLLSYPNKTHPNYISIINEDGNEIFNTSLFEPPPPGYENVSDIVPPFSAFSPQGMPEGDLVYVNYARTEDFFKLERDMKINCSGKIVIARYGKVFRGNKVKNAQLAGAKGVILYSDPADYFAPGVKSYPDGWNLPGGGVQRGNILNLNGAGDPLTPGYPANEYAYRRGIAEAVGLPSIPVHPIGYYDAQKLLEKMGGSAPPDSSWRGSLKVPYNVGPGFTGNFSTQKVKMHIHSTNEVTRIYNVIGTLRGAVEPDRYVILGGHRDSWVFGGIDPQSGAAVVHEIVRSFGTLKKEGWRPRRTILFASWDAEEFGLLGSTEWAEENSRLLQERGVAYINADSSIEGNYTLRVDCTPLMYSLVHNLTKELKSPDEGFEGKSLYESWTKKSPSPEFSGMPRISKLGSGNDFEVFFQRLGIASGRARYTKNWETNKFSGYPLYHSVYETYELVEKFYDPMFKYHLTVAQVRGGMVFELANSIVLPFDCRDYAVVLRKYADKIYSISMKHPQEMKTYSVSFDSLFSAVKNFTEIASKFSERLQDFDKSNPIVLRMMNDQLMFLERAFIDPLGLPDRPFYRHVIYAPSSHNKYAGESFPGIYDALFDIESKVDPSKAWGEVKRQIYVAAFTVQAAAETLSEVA
T2 sequence (O35409 45-752): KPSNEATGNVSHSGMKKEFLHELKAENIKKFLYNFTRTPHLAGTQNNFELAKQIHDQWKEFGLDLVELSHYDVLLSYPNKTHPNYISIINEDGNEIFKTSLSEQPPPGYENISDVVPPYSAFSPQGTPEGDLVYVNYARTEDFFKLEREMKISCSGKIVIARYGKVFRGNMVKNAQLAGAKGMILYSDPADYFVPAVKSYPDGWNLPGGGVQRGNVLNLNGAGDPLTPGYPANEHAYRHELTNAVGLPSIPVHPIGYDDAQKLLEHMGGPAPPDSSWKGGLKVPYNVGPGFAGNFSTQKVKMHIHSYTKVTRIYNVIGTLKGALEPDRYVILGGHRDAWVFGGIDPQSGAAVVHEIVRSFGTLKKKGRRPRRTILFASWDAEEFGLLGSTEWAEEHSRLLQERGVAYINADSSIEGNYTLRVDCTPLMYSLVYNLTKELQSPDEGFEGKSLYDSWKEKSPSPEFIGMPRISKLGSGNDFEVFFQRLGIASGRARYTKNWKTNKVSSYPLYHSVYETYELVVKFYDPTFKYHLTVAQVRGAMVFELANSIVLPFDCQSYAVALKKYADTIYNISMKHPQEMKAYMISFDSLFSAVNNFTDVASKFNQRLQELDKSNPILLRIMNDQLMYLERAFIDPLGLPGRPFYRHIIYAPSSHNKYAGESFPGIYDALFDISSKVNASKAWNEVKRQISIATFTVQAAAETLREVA

B1: H-AB-P1 (AB-PG1-XG1-006) (antibody, V domains shown)
VH: QVQLVESGGGVVQPGRSLRLSCAASGFAFSRYGMHWVRQAPGKGLEWVAVIWYDGSNKYYADSVKGRFTISRDNSKNTQYLQMNSLRAEDTAVYYCARGGDFLYYYYYGMDVWGQGTTVTVSS
VL: DIQMTQSPSSLSASVGDRVTITCRASQGISNYLAWYQQKTGKVPKFLIYEASTLQSGVPSRFSGGGSGTDFTLTISSLQPEDVATYYCQNYNSAPFTFGPGTKVDIK
As for B1, the “DT3C endocytosis assay on LNCaP cells, IC50” value in [1] came to 2.71 nM.

B2: P19 (19L2H2) (antibody, human IgG1, kappa, V domains shown)
VH: EVKLVESGGGLVQPGGSLRLSCAASGFTFSDYYMAWVRQAPGKGLEWVANINYDGSSTYYLDSLKSRFTISRDNAKNSLYLQMNSLRAEDTAVYYCARGGDYWDAMDYWGQGTTVTVSS
VL: DIQMTQSPSSLSASVGDRVTITCRASQDISKYLNWYQQKPGKAPKLLIYYTSSLHSGVPSRFSGSGSGTDYTLTISSLQPEDFATYYCQQGNRLPRTFGGGTKVEIKR
notes: Humanized anti-PSMA antibody from mouse mAb19-1 (hu19-1 VH2 + hu19-1 VL2), human IgG1 / kappa constant regions; also called antibody P19
As to B2, the “DT3C endocytosis assay on LNCaP cells, IC50” value in experiment [1] turned out to be 0.25 nM. Moreover, the EC50 (as a rule, the concentration giving half of the maximal effect) came to 0.637 nM in experiment [2], 2.09 nM in experiment [3], 0.0719 nM in [4] and 0.305 nM in experiment [5]. Further, the binding result in [6] is reported as “no binding”. For the same molecule, the values for the Kd in [7] and in experiment [8] were 1.3 nM and 5.08 nM, respectively. In addition, the koff – broadly, the first-order rate constant of dissociation – in [7] stood at 7.92e-05 s⁻¹. Further, the kon (in general, the second-order rate constant of association) in [7] was 61100 M⁻¹ s⁻¹.

B3: ADC-2 (P19-9-A, n = 7.41) (antibody, human IgG1, kappa, V domains shown)
VH: B2 VH
VL: B2 VL
modifications: drug-linker 9-A coupled via sulfhydryl groups on cysteine; mean n = 7.41 per antibody (positions not stated)
Regarding B3, in experiment [9], the “killing of 22RV1 (+) cells, CellTiter-Glo, IC50” value amounted to 6.92 nM and the “killing of LNCaP (+++) cells, CellTiter-Glo, IC50” value was determined as 2.83 nM. The concentration for a half-maximal effect (EC50) in experiment [4] came out at 0.0812 nM. In experiment [5], this molecule showed a 50% effective concentration (EC50) of 0.307 nM.

B4: ADC-1 (P19-9-A, n = 5.55) (antibody, human IgG1, kappa, V domains shown)
VH: B2 VH
VL: B2 VL
modifications: drug-linker 9-A coupled via sulfhydryl groups on cysteine; mean n = 5.55 per antibody (positions not stated)
With B4, in experiment [9], the “killing of 22RV1 (+) cells, CellTiter-Glo, IC50” value came to 29.5 nM. For the same molecule, the “killing of LNCaP (+++) cells, CellTiter-Glo, IC50” value in [9] amounted to 8.52 nM. Further, the EC50 turned out to be 0.114 nM in [4] and 0.442 nM in experiment [5].

The record behind these values is patent EP4755403A1 (Jiangsu Hengrui Pharmaceuticals Co., Ltd., dated 2025).
